Experimental data taken from FireProtDB (doi:10.1021/bi012042l).

Details: Rattus norvegicus; pH 7.3; 20 °C; GdnHCl; Fluorescence; potassium phosphate 20 mM; whole UniProt chain shown

B1: Fatty acid-binding protein, intestinal wild type, P02693 (protein)
chain: MAFDGTWKVDRNENYEKFMEKMGINVVKRKLGAHDNLKLTITQEGNKFTVKESSNFRNIDVVFELGVDFAYSLADGTELTGTWTMEGNKLVGKFKRVDNGKELIAVREISGNELIQTYTYEGVEAKRIFKKE
With B1 the “denaturant midpoint (higher = more stable)” value was 1.4 M and the unfolding free energy was 5 kcal/mol.
